Laboratory results from article PMC9061721 (Nature Communications, 2022).

Columns and labels:
[1] = molecular target: recombinant human insulin (Homo sapiens, UniProt P01308); test: ELISA; conditions: both partners purified
[2] = molecular target: T1, H3 peptide 36-57HA2 (wild type) (Influenza A virus A/Hong Kong/1/1968 …, UniProt Q91MA7, strain); test: ELISA; conditions: both partners purified
T1 construct: source: synthetic peptide

Sequence of recombinant human insulin (P01308 whole entry, looked up): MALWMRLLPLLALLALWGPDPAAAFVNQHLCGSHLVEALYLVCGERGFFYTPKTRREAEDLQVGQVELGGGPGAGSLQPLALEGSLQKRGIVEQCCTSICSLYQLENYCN

Binder	binding result [1]	binding result [2]
antibody 28-4 (antibody, V domains shown) VH: EVQLVQSGGGLVQPGGSLGLSCAASGFTFSNYNMNWVRQAPGKGLEWLAYISGSSNTIFYADSVKGRFTISRDNAKNSLHLQMSSLRDEDTAVYYCARDRGCNSNICYVVGYYFYGMDDWGQGTTVTVSS VL: DIQMTQSPSSVSASVGDRVTITCRASQAITSYLVWYQQKPGKAPKLLIYDAARLESGVPSRFSGSGSGTHFTLTINNLQPEDFATYYCQQADSFPLTFGQGTRLEIK	no binding	–
3I14 (antibody, V domains shown, source: Expi CHO cells, cotransfected, purified (Protein A Agarose)) VH: QVQLLESGGGVVQPGRSLRLSCAASGFTFSNYGMHWVRQAPGKGLEWVAIISFDGSKKYYANSVKGRSTISRDNSKNTLSLQMNSLGPEDTALYYCAKLPSPYYFDSRFVWVAASAFHFWGQGILVTVSS VL: not shown	–	binds
antibody 28-6 (antibody, V domains shown) VH: EVQLVQSGGGLAQPGGSLRLSCTASGFAFSSYGMNWVRQTPGKGLEWVSYISSGSTIIDYAGSVKGRFTISRDNAKNSLHLEMNSLRDEDTAVYYCARDRGCSSTTCYVIGYYYYGMDVWGQGTTVTVSS VL: DIQMTQSPSSVSASVGDRVTITCRASQGINRRLVWYQQKPGKVPKLLIYDASSLQCGVPSRFSGSGSGTDFTITISSLQPEDFATYYCQQADSFPLTFGQGTRLEIK	no binding	–
antibody 28-2 (antibody, V domains shown) VH: EVQLVESGGGLVQPGGSLRLSCAASGFTFSTYSMNWVRQAPGKGLEWLSYISTSSSTIDYADSVKGRFTISRDNAKNSLYLQMNSLRDEDTAVYYCARDRGCSSTNCYVVGYYFYGMDVWGQGTTVTVSS VL: DIQMIQSPSSVSASVGDRVTITCRASQGISSYLAWYQQKPGKAPKLLIYAASRLQSGVPSRFSGSGSGTDFTLTISGLQPEDFATYHCQQANSFPLTFGQGTRLEIK	no binding	–
